Test results: the NTF2 design screens of Basanta et al. (2020)

Assay: protease stability score; higher = more stable; yeast display proteolysis, trypsin and chymotrypsin;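 note: relative to predicted unfolded state with 0 unfolded-like and 1 meaning tenfold more protease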

Q: Which protease stability score does the source give for “SEDHDLVREVARLYIDAVKTGDEDLIRFLFDPHVRSEINGVQLHGWEEVFRFWQELRVHHIDLHSVHVEFQGDKAINRNEVHYNGEYGDKRNRYRLDLRIILHKIDGRWIVEEVHLITD” here?
A: 1.45

Q: Which protease stability score does the source give for “TEDDHKFEEAMRLWEHIEKTGDPHTASKMLDPNVRIYINGRELHGRHLFEHLEEHWLLELRLKHVQIQHIEVIDGRLEFDVEVNGQQGDKDIRMRVNVTVHKIDGRWFLKMVSFE” here?
A: 0.705

Q: With “DERTEEVKRITEEFREAERTGDWERLLELIDPDVRIEIIINGRRETYHGREDAKRVLEEWYKQFKNITLKLREMRIQGDKTDLEVEVNVNGRRHDIRVHLHIVNGRIKEIRIEVI” as the sequence, how does the protease stability score read?
A: 1.63

Q: For “SEEEQRQHEFMILWLEYFRTGNEEELLELIDPNVLLVMDINGRNELNHGRELWHEFMNRFWEKIKNATFIVHDKRVINGRIHMDGRLDINGREYTVHLHIEVINGVTKRFEIRIR”, which protease stability score is on record?
A: 1.68

Q: Which protease stability score does the source give for “SEDEEQSRHAFELWVRAYLTGNEEFLEKNADPNTRFIVGDKHIHGRELVFEFLKRIIDRRGMEIKDIKMRDMRVIGEKIEVDTTLHQHYNGVDFDHQIHFIMIKIDGKWKIKTIEIR” here?
A: 1.43

Q: For “DDKHELSHKFVRLIMHLIDTGDEDDIHRLLDPHAKLHVGDKRFVGREDIAHFWKKHLDDLGADYRHTRLKHIDLIGEKVIVHTEIDLTVGEYRVTIDSTFVVEKINGRWLSREFRWN”, which protease stability score is on record?
A: 0.88

Q: Which protease stability score does the source give for “SDIDELDRELMEHTLRTIRTGDEETVHRLLDPDARTLINGREYHGREWATKMMSDWNRELGIDHLEIKHVDLINGKVRIDVKITVGDKEFHMTMVYNKVNGKWINHSIHIH” here?
A: 0.409

Q: For “DEMRRDVDETLKELLEAWETGDEEKVSHLMDPNVRIHIGDKTLVGRELVREEVRHLRYHDYDVHHIRVIGEKADIDGVLDGNVNGRRENRKIHLHLLKVDGRWFFEETRFE”, which protease stability score is on record?
A: -0.004

Q: For “SEDEEDFERAIKLYETLNATGNEEEYSKMVDPHVKMHFNGVDFHGREKMVEVVHKLGVKHLETKSIRIIGDFLRSRFENDVDGRKIEQEVQMLKINGRWLIKYISFH”, which protease stability score is on record?
A: 0.706

Q: With “DERHEHAKEYLEMWLHSIFTGDERTLMELVDPNAKHLVNGRERHGRDELSRILIHIRMHVRDSKLRDMRVVGDKAIIHTEVDEELHFNGRTVRMIVEVEIYLFKVNGKWVFTEIRII” as the sequence, how does the protease stability score read?
A: 1.29

Q: Which protease stability score does the source give for “SEEEELARHIFELWIKTLRTGDEKLLRELADPHVQVILLVDGRHLENHGWEEFVRIFKEWRIHRVHVHDVKVFENRIHMDGTIDYEIGDKRFITKRIVDLVVINGRLKRLEIQIH” here?
A: 2.66

Q: For “DEEDELSEELSRFSLKTLRTGDEDLLSRNMDPHVRMDIDGQDLHGREHVIKFLKDWNRMFGIKHTELKHVRIQGNWIEIHARIQVGDKEMDLRIYAVKIDGRWLVHSIEVEKK”, which protease stability score is on record?
A: 0.182

Q: For “SDDERMLHLLIKILIRAIQTGDEDTLLRQVDPHVRIDIDGRDIVGREDLIEFAKHWRFELREVNIRHMEIYGEYIHAEVEVRGKIIIGDKEVETTVDTRHIILKINGRWFFHSISVK”, which protease stability score is on record?
A: 1.26

Q: With “DEEHEFLITMVKLVSTWFLTGDFETYIDLADPNTRQHVNGRYSVGREDAVKLEEEMLREIRIRDIRVKHIIRQGDKIELEFRFHMEVDGRVEDITVEVRIFLVNGRLHFLEIRFD” as the sequence, how does the protease stability score read?
A: 0.743

Q: Which protease stability score does the source give for “DERERDIREWMRIYIEMWETGDEDKLLTMIDPHYREETENEDIHGREQAHKKIKDIKERADHLHIRVHDVDIIDGVAVLDVEILIIIGDKVIRVRTTIIMRKINGKWFIERVHIK” here?
A: 0.235

Q: For “TEEEELSELILELTERMIKTGDEKTLHRLMDPNARTVIGDKQDHGMRTIFNIMEELSERIKNARFSLKHIDVDGDKVKIWSTLNYDGRRWEVEIVARKIDGQWRLEEFRIR”, which protease stability score is on record?
A: 0.626

Q: Which protease stability score does the source give for “DEDHKIIEKLFRHWLELLLTGDEEEIEKQMDPHARIIINGRHTHGRDDIRRLLEEIRIRHLDIERLEIRIYGNKAVALSETRVEVRIGDKEFHVDYRIILIIEKVDGRWVKRSLELIVV” here?
A: 1.71

Q: For “HEEKHLMDEALELIKYFTETGDERQLTEYADPNVRIDIDGQRFHGREDWEELVREWNSRFKNLKFNFREIDVQGEFIHTRGELNVNGKRFDVRIVSDKINGRWILHSIHFE”, which protease stability score is on record?
A: 1.58

Q: For “TEHDHDTERAFKEWFDVVRTGDFHRLERMLDPNVLSRIDGKLIHGRERLLKFWQEYLEHLGANHHEIHHVDIQGDKINIDIRVEYGDKRFTVHVHASKINGQWRVHENEKQ”, which protease stability score is on record?
A: 1.02

Q: With “SEQDEMAEKWVHMFLHSWFTGDEDFFETLLDPNVQLIVNGKHHHGREDVKRFLHEEYRRIDHIEDFHLRRLEIQGDFARLDGEVIMIVNGRRHEFRVEIRLFIVNGKMRSIEINEE” as the sequence, how does the protease stability score read?
A: 2.23

Q: With “SEEEKILEDALRLLIEVDETGNWKLLQEMIDPNVLVDINGRKYHGREQWIRLLHEFIRDAGVQRIHSDIEHIEIQGEKIIMHGMLDINGQRRRTEVIAHKYDGRWFVEEIRIR” as the sequence, how does the protease stability score read?
A: 2.11

Q: For “EEEKKETEHWIETFYRIINTGDEETWSKMADPDMRLEVLIDGKKLELHGRDAFEDFVSKMGFDHVHIHDMEVIGEKAHIHTELRYGDKHIRFEIQLVVVNGRYKSVTIRRK”, which protease stability score is on record?
A: 1.75

Q: With “DSHRELLERFARLMLHLWLTGDEDELHKYMDPHVRYHQGEFHIHGREEVTRWASELHKKLGINHEDQERVNIYDGKNHVDTRLDINGRHLRVELRIDVWNGRIREVQVHHR” as the sequence, how does the protease stability score read?
A: 1.41

Q: Which protease stability score does the source give for “DDERRHTEKVLELWTRFLYTGDEHRMSELLDPNTQLRVGDKDLHGWHLFVHFISELIRKLGVDHLEVELKHADIINGRAELHVKFHFHTENHHTTINIIFFYEKIDGVWLIKSIEIK” here?
A: 2.04

Q: With “DEFEKDFRFAIEEWLKVVRTGDEDRAHELMDPDVKLDIGDKRHHGREEMLHHVRRADVIHDYKIKDLKFQGNYITVQGEVDGQIGDKRIRTEVRVIILKIDGVWLWRQNYER” as the sequence, how does the protease stability score read?
A: 0.907
